Source: US20250361288A1 (Gilead, published 2025)
Numbering of substitutions follows the chain as printed. Names may count otherwise.

T1: mouse HVEM extracellular domain fused with an Fc fragment at the C-terminus (mouse, UniProt Q80WM9 39-206, limits assumed)
T1 construct: extracellular domain; Bought; also called mHVEM; not shown: Fc fragment at the C-terminus
T1 sequence (looked up): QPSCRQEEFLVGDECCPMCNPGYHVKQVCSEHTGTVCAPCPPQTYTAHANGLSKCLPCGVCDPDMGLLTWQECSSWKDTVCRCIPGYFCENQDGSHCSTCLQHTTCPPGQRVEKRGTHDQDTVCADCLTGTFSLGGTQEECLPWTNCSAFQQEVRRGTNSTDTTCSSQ

T2: human HVEM extracellular domain fused with an Fc fragment at the C-terminus (human, UniProt Q92956 39-202)
T2 construct: extracellular domain; Bought; also called hHVEM; not shown: Fc fragment at the C-terminus
T2 sequence (looked up): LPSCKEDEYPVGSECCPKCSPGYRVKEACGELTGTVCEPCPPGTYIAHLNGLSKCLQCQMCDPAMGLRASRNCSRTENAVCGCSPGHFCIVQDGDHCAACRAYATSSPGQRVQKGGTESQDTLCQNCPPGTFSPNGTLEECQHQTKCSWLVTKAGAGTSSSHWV

T3: recombinant DcR3 protein (human DcR3 residues 33-300 linked to the N-terminal of rabbit Fc) (human, UniProt O95407 33-300)
T3 construct: range 33-300; Expressed in Expi293F, purified on protein A; not shown: rabbit Fc
T3 sequence (looked up): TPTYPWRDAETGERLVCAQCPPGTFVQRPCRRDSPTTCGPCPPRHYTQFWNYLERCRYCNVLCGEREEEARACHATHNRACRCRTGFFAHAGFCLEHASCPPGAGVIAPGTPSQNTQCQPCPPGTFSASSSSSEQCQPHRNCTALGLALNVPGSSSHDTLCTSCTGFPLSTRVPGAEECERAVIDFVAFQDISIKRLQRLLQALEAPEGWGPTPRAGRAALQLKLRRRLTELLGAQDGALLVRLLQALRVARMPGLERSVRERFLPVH

B1: LIGHT-39 (ligand)
chain: DGPAGSWEQLIQERRSHEVNPAAHLTGANSSLTGSGGPLLWETQLGLAFLRGLSYHDGALVVTKAGYYYIYSKVQLGGVGCPLGPASTITHGMYKRTPRYPEELELLVSQQSPCGRATSSSRVWWDSSFLGGVVHLEAGEKVVVRVMDERLVRLRDGTRSYFGAFMV
notes: Printed mutations: L158P, L166M, L220M; Soluble protein carries an N-terminal His tag
B2: LIGHT-37 (ligand)
chain: B1 chain with P85L, M93L, A117T, F129Y, K141E, M147L
notes: Printed mutations: A190T, F202Y, K214E; Soluble protein carries an N-terminal His tag
B3: LIGHT-35 (ligand)
chain: B1 chain with P85L, T88S, M93L, M147S, E149N
notes: Printed mutations: T161S, L220S, E222N; Soluble protein carries an N-terminal His tag
B4: LIGHT-90 (ligand)
chain: B1 chain with P85L, S87G, T88G, M93L, M147T, E149S
notes: Printed mutations: S160G, T161G, L220T, E222S; Soluble protein carries an N-terminal His tag
B5: LIGHT-86 (ligand)
chain: B1 chain with G77R, P85L, S87R, M93L, M147S
notes: Printed mutations: G150R, S160R, L220S; Soluble protein carries an N-terminal His tag
B6: LIGHT-60 (ligand)
chain: B1 chain with P85L, S87G, T88G, M93L, M147S, E149S
notes: Printed mutations: S160G, T161G, L220S, E222S; Soluble protein carries an N-terminal His tag
B7: LIGHT-61 (ligand)
chain: B1 chain with P85L, S87G, T88P, M93L, M147S, E149S
notes: Printed mutations: S160G, T161P, L220S, E222S; Soluble protein carries an N-terminal His tag
B8: LIGHT-88 (ligand)
chain: B1 chain with A22T, G77R, P85L, S87R, M93L, P101L, W125Q, M147S, R155L
notes: Printed mutations: A95T, G150R, S160R, P174L, W198Q, L220S, R228L; Soluble protein carries an N-terminal His tag
B9: LIGHT-89 (ligand)
chain: B1 chain with A22T, G77R, P85L, S87R, M93L, P101L, W125Q, M147L, R155L
notes: Soluble protein carries an N-terminal His tag
B10: LIGHT-58 (ligand)
chain: B1 chain with P85L, S87G, T88G, M93L, M147S
notes: Printed mutations: S160G, T161G, L220S; Soluble protein carries an N-terminal His tag
B11: LIGHT-87 (ligand)
chain: B1 chain with G77R, P85L, S87R, M93L, W125Q, M147S, R155L
notes: Printed mutations: G150R, S160R, W198Q, L220S, R228L; Soluble protein carries an N-terminal His tag

target: T1, mouse HVEM extracellular domain fused …; assay: phage ELISA
Procedure: Individual clones from the fourth selection round were grown in 96-well deep well blocks in 100 μl of 2YT broth supplemented with 50 μg/ml ampicillin at 37° C. and 220 rpm for 5 hours. Then, 5 μl of helper phages were added to each well and incubated at 37° C. for 30 minutes. After centrifuging at 3,000 rpm for 10 minutes, the cells were resuspended and grown overnight in 150 μl/well of 2YT broth supplemented with 50 μg/ml ampicillin and 50 μg/ml kanamycin.
For the ELISA screening, 96-well ELISA plates were coated with target proteins (1 μg/ml in PBS) at 4° C. overnight and then blocked with 2% BSA for 2 hours at room temperature. The supernatant containing phage particles was added to the plates and incubated at room temperature for 1 hour. After incubation, the plates were washed five times with PBST. HRP (horseradish peroxidase) conjugated anti-M13 antibody (Sino Biological, China) was added to the wells and incubated at room temperature for 1 hour. Following another round of washing five times with PBST, 50 μl of TMB (3,3′, 5,5″-tetramethylbenzidine, #34029, ThemoFisher) was added to each well. After 5 minutes, the reaction was stopped by adding 50 μl stop solution (#C1058, Solarbio, China). The absorbance at 450 nm (OD450) was measured using a plate reader (SpectraMax M5, Molecule Devices). Wells coated with BSA were used as negative controls. Phage clones with an ELISA score ratio (target/BSA)>3 were considered positive clones.

B1: binds.
B2: binds.
B3: binds.

target: T4, human LTβR extracellular domain fused with an Fc fragment at the C-terminus (human, UniProt P36941 31-227); assay: ELISA on coated target-Fc
T4 construct: extracellular domain; Bought; also called hLTβR; not shown: Fc fragment at the C-terminus
Procedure: (§1) Nunc MaxiSorp 96-well plates (Thermofisher) were coated with target proteins (1 μg/ml), and then blocked with 2% BSA-PBS buffer for one hour. Serial dilutions of the LIGHT muteins were added with a maximum concentration of 200 ng/ml. The plates were incubated for one hour, washed four times with PBST, and then incubated with mouse anti-His tag antibody (#105327, Sino Biological) for 1 hour. The plates were further incubated with HRP-conjugated goat anti-mouse secondary antibody (#SSA006, Sino Biological) before being washed three times with PBST and treated with TMB substrate (#34029, ThermoFisher). The plates were read at 450 nm on a SpectraMax M5 microplate reader (Molecule Devices). The ELISA results were analyzed using GraphPad Prism 9.0 software and the EC50s (half maximal effective concentration) were summarized in Table 5-1 and Table 5-2.

T4 sequence (P36941 31-227): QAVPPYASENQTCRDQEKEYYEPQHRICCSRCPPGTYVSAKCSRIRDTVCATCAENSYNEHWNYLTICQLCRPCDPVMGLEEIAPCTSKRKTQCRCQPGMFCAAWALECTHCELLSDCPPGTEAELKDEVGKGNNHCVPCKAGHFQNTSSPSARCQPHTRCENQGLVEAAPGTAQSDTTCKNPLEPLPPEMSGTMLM

B1 and B2 are within 1.5-fold of each other in EC50: 0.0542 µg/mL for the first, 0.0434 µg/mL for the second.

For B3, the EC50 was 0.0703 µg/mL.

target: T5, mouse LTβR extracellular domain fused with an Fc fragment at the C-terminus (mouse, UniProt P50284 31-223); assay: ELISA on coated target-Fc
T5 construct: extracellular domain; Bought; also called mLTβR; not shown: Fc fragment at the C-terminus
Procedure: as §1

T5 sequence (P50284 31-223): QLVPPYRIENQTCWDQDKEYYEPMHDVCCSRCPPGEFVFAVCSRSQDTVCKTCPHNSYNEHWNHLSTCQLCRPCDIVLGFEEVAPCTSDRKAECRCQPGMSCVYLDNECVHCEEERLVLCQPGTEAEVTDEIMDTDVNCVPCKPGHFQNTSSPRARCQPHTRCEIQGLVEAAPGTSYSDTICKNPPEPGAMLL

Compared with B1, B2 is 2.8-fold higher in EC50: 0.0239 µg/mL for the first, 0.0678 µg/mL for the second.

For B3, the EC50 was 0.0383 µg/mL.

target: T2, human HVEM extracellular domain fused …; assay: ELISA on coated target-Fc
Procedure: as §1

B1 and B2 are within 1.5-fold of each other in EC50: 0.049 µg/mL for the first, 0.037 µg/mL for the second.

B3 showed an EC50 of 0.0416 µg/mL.

target: T4, human LTβR extracellular domain fused …; assay: ELISA on coated target-Fc; remark: another data set of the same source
Procedure: as §1

Compared with B4, B5 is 5.3-fold lower in EC50: 1.78 nM for the first, 0.336 nM for the second.

Compared with B6, B7 is 1.9-fold lower in EC50: 0.919 nM for the first, 0.482 nM for the second. The second is the more potent here.

Going from B8 to B9, the EC50 rises from 0.264 nM to 0.625 nM (2.4-fold). The first is the more potent here.

B10 and B11 are within 1.5-fold of each other in EC50: 0.309 nM for the first, 0.413 nM for the second.

target: T5, mouse LTβR extracellular domain fused …; assay: ELISA on coated target-Fc; remark: another data set of the same source
Procedure: as §1

Going from B4 to B5, the EC50 falls from 0.978 nM to 0.327 nM (3-fold). The second is the more potent here.

B6 and B7 are within 1.5-fold of each other in EC50: 0.63 nM for the first, 0.498 nM for the second.

Going from B8 to B9, the EC50 rises from 0.262 nM to 0.503 nM (1.9-fold).

B10 and B11 are within 1.5-fold of each other in EC50: 0.273 nM for the first, 0.315 nM for the second.

target: T2, human HVEM extracellular domain fused …; assay: ELISA on coated target-Fc; remark: another data set of the same source
Procedure: as §1

First: B4
Second: B5
The EC50 of the first is 2.5-fold lower: 2.12 nM for the first, 5.27 nM for the second. The first is the more potent here.

B6 and B7 are within 1.5-fold of each other in EC50: 0.639 nM for the first, 0.46 nM for the second.

Going from B10 to B11, the EC50 rises from 0.432 nM to 6.68 nM (15-fold).

target: T3, recombinant DcR3 protein (human DcR3 …); assay: ELISA on coated DcR3-rabbit Fc
Procedure: To test whether the muteins can bind to DcR3, the recombinant DcR3 protein was generated by linking human DcR3 residues 33-300 to the N-terminal of rabbit Fc. The recombinant proteins were expressed in Expi293F and affinity-purified using protein A beads, as previously described. Human DcR3 proteins were immobilized onto maxiSorp 96-well ELISA plates (Thermo Fisher) at a concentration of 0.5 μg/mL and then blocked with 2% BSA-PBS buffer for one hour. The LIGHT variants were added to the plates at various dilutions, with a maximum concentration of 10 nM. The plates were incubated for one hour, washed four times with PBST, and then incubated with mouse anti-His tag antibody (#105327, Sino Biological) for 1 hour. The plates were further incubated with HRP-conjugated goat anti-mouse secondary antibody (#SSA006, Sino Biological) before being washed three times with PBST and treated with TMB substrate (#34029, ThermoFisher). The plates were read at 450 nm on a SpectraMax M5 microplate reader (Molecule Devices). The ELISA results were analyzed using GraphPad Prism 9.0 software and the EC50s (half maximal effective concentration) were summarized in Table 5-2.

Going from B4 to B5, the EC50 rises from 0.692 nM to 25.9 nM (37-fold).

B6 and B7 are within 1.5-fold of each other in EC50: 0.311 nM for the first, 0.213 nM for the second.

Work on B10 yielded an EC50 of 0.184 nM.
